In article PMC8068667 (Nature, 2021):

Target: RIFIN PF3D7_1373400 V2 domain, soluble recombinant (P. falciparum 3D7, UniProt C0H5N9)
Assay: cryo-EM structure

B1: MDB1 Fab (LILRB1 D3D4-containing antibody Fab) (Fab, V domains shown)
VH: QITLKESGPTLVERTQTLTLTCTFSGFSLTTDGLGVGWIRQPPGKALEWLALIYYDDVRRYRPSLKSRLTITKDTSKNRVVLTVTDMDPVDAGTYFCVHASLFNLGSRNVYFRYWGQGTLVSVSS
VL: SYDLTQPPSVSVSPGQTARITCSGDSLARQFASWYQQKPGQSPVLLIYKNIERLSAIPERFSGSTSGTSVTLTISGVQAEDEADYFCQSADDSGSYSLFGTGTRVSVL
Does B1 bind?
Result: binds
